These results are taken from patent publication US20260209362A1 (VIB VZW, published 2026).

For experiment [1], the target named is human IL-12Rβ2 expressed on cells (human) (UniProt Q99665).
The target in experiment [2] is CD20 (human) (UniProt P11836).
For experiment [3], the target named is T1, biotinylated recombinant mouse IL-12Rβ2 (mouse, UniProt P97378 24-637, random biotinylated).
T1 construct: Recombinant protein produced in-house, biotinylated; also called mIL-12RB2; mouse IL-12RB2
T1 sequence: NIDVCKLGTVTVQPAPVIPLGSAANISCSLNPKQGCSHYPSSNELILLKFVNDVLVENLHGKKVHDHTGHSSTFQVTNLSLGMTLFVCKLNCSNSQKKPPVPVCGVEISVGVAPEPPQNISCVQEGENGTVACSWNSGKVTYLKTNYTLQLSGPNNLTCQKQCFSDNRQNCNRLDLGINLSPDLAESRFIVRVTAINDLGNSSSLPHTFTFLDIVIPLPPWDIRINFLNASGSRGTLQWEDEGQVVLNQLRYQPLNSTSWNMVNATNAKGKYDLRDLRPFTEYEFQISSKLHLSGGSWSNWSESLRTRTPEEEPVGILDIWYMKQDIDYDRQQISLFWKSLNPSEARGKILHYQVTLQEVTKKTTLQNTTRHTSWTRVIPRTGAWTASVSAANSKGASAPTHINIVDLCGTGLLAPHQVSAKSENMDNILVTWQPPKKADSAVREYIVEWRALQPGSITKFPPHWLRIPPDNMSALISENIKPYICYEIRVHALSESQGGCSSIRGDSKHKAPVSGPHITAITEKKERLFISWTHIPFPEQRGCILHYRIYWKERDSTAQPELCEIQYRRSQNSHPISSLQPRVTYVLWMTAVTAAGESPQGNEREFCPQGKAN
The experiment in a line: BLI (Octet), periplasmic extract on biotinylated mIL-12Rβ2 on streptavidin tips. For orientation: Biolayer interferometry detects binding as a change in optical thickness at a sensor tip.

Experiment [4] addresses T1, biotinylated recombinant mouse IL-12Rβ2. In words: ELISA, periplasmic extract on biotinylated mIL-12Rβ2, signal over control wells.
In experiment [5] the target is T2, biotinylated recombinant human IL-12Rβ2 (human, UniProt Q99665 24-622, random biotinylated).
T2 construct: Recombinant protein produced in-house, biotinylated; also called hIL-12RB2; human IL-12RB2
T2 sequence: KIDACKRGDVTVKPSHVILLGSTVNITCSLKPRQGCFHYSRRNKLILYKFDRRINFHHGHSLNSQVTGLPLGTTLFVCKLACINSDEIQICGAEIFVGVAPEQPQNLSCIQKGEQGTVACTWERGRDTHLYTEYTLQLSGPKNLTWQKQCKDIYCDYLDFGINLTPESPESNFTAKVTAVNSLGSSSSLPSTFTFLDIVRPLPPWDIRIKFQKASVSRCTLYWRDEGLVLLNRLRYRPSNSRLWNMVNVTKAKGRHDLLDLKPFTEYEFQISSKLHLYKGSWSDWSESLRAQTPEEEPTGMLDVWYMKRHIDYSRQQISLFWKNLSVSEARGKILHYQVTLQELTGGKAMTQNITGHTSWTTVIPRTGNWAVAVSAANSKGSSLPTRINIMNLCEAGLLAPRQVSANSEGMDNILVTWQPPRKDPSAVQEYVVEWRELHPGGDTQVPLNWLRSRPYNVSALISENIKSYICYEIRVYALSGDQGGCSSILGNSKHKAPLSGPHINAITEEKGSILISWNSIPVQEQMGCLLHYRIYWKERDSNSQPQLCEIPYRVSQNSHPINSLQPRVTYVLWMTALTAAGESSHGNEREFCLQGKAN
In words: BLI (Octet), periplasmic extract on biotinylated hIL-12Rβ2 on streptavidin tips.

For experiment [6], the target named is T2, biotinylated recombinant human IL-12Rβ2. In words: ELISA, periplasmic extract on biotinylated hIL-12Rβ2, signal over control wells. A general note: In an ELISA, binding on a coated surface is turned into a signal by an enzyme label.
Experiment [7] concerns the target T1, biotinylated recombinant mouse IL-12Rβ2. The experiment in a line: BLI (Octet), periplasmic extract on biotinylated mIL-12Rβ2 on streptavidin tips, 1:1 model.
Experiment [8] deals with T2, biotinylated recombinant human IL-12Rβ2. The experiment in a line: BLI (Octet), periplasmic extract on biotinylated hIL-12Rβ2 on streptavidin tips, 1:1 model.

CD20 (human), sequence (P11836 whole entry): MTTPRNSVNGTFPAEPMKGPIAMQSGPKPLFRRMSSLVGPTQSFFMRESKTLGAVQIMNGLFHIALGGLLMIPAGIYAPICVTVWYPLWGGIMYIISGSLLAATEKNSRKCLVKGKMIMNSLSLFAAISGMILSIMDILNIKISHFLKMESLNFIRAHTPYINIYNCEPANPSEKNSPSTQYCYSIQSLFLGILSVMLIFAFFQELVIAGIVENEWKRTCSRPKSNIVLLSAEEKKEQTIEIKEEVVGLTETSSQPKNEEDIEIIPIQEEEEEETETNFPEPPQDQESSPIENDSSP

In the case of IgG1 (antibody), in experiment [1], the % Specific Cell Lysis at 0.00125 ug/mL worked out at 47.5%, the % Specific Cell Lysis at 0.025 ug/mL came out at 50.4%, the % Specific Cell Lysis at 0.5 ug/mL amounted to 48.7% and the % Specific Cell Lysis at 10 ug/mL is 44.6%.
In experiment [2], Rituximab (antibody) gave a % Specific Cell Lysis at 0.00125 ug/mL of 52.4%, a % Specific Cell Lysis at 0.025 ug/mL of 64.7%, a % Specific Cell Lysis at 0.5 ug/mL of 75.6% and a % Specific Cell Lysis at 10 ug/mL of 77.5%.

B1: anti-IL-12Rβ2 VHH clone 21060 (VHH, not shown: small tags and cut ends)
VHH: QVQLQESGGGLVQAGGSLSLSCAASGSAFRLNFMGWYRQAPGKQRELVAAINSGGTEIYHDSVKGRFTISRDNADSTVWLQMNSLKPDDTAVYYCAADRGISWSKLAGGMDYWGKGTQVTVSS
notes: tested as periplasmic extract; also called 3CRHM73
As a reminder, the koff is the rate constant with which the complex falls apart. With B1, the results for the Response in experiment [3] and in experiment [5] were 0.944 and 1.45, respectively. In addition, the “ELISA binding mIL-12RB2/control” value in experiment [4] is 26.3 ratio. The “ELISA binding hIL-12RB2/control” value in experiment [6] turned out to be 6.9 ratio. Moreover, the koff in experiment [7] and in experiment [8] was 0.00605 s⁻¹ in each case.

B2: anti-IL-12Rβ2 VHH clone 21052 (VHH, not shown: small tags and cut ends)
VHH: QVQLQESGGGSVQAGGSLRLSCAVSGRTVSDYAMGWFRQAPGKEREFVAAMSSSETTVYPNSVKGRITISRDNAKNAVYLQMNALKPEDTAVYYCSMGPIVTFQGLARQNEYHYWGQGTQVTVSS
notes: tested as periplasmic extract; also called 3CRHM12
B2: the Response in experiment [3] was determined as 0.837; in experiment [5], 1.32. Moreover, the “ELISA binding mIL-12RB2/control” value in experiment [4] stood at 38.3 ratio. Besides, in experiment [6], the “ELISA binding hIL-12RB2/control” value amounted to 7.28 ratio. Also, the off-rate constant (koff) in experiment [7] came to 0.00599 s⁻¹; in experiment [8], 0.00547 s⁻¹.

B3: anti-IL-12Rβ2 VHH clone 21051 (VHH, not shown: small tags and cut ends)
VHH: QVQLQESGGGSVQAGGSLRLSCAVSGRTVSDYAMGWFRQAPGKEREFVAAMSSSETTVYPNSMKGRITISRDNAKNAVYLQLNALKPEDTAVYYCSMGPIATFQGLARQNEYHYWGQGTQVTVSS
notes: tested as periplasmic extract; also called 3CAHM40
Take B3: the Response was determined as 0.809 in experiment [3] and 1.32 in experiment [5]. Moreover, in experiment [4], the “ELISA binding mIL-12RB2/control” value was determined as 11.9 ratio. Besides, the “ELISA binding hIL-12RB2/control” value in experiment [6] turned out to be 3.73 ratio. For the same molecule, the off-rate constant (koff) in experiment [7] came to 0.00644 s⁻¹; in experiment [8], 0.00578 s⁻¹.

B4: anti-IL-12Rβ2 VHH clone 21065 (VHH, not shown: small tags and cut ends)
VHH: QVQLQESGGGSVQAGGSLRLSCAVSGRTVSDYAMGWFRQAPGKEREFVVAMSSSETTVYTNSVKGRITISRDNAKNAVYLQMNALKPEDTAVYYCSMGPITTFQGLARQNEYHYWGQGTQVTVSS
notes: tested as periplasmic extract; also called 3CRHM240
For B4, the Response in experiment [3] is 1.05; in experiment [5], 1.5. Moreover, in experiment [4], the “ELISA binding mIL-12RB2/control” value is 5.72 ratio. In addition, the “ELISA binding hIL-12RB2/control” value in experiment [6] turned out to be 3.78 ratio. In addition, the dissociation rate constant (koff) in experiment [7] amounted to 0.00483 s⁻¹; in experiment [8], 0.00457 s⁻¹.

B5: anti-IL-12Rβ2 VHH clone 21063 (VHH, not shown: small tags and cut ends)
VHH: QVQLQESGGGSVQAGGSLRLSCAVSGRPVSDYAMGWFRQAPGKEREFVAALSASDTTVYPNSVKGRITISRDNAKNAVDLQMNALKPEDTAVYYCAMGPIGTFQGLARQNEYHYWGQGTQVTVSS
notes: tested as periplasmic extract; also called 3CRHM133
Regarding B5, the Response was 0.97 in experiment [3] and 1.13 in experiment [5]. Besides, the “ELISA binding mIL-12RB2/control” value in experiment [4] was 3.92 ratio. In addition, in experiment [6], the “ELISA binding hIL-12RB2/control” value was determined as 3.46 ratio. Moreover, the off-rate constant (koff) was 0.00667 s⁻¹ in experiment [7] and 0.00389 s⁻¹ in experiment [8].
